Results published in US6544767.

Target: mature recombinant human cathepsin O2 (human) (UniProt P43235)
Test: cell-based or functional assay

mature recombinant human cathepsin O2 (human), sequence (P43235 115-329): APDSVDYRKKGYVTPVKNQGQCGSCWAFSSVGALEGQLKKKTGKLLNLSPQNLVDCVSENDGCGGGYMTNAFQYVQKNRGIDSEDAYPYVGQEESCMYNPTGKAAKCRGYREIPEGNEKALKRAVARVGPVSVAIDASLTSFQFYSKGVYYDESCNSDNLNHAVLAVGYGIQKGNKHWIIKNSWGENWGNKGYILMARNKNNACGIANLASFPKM

% inhibition (of cathepsin O2 activity, fluorimetric Z-FR-MCA assay, 0.1 µM inhibitor): 100%
Substance: chicken cystatin (from UniProt P01038 24-139)
